Values joined by “and” are separate entries in the source; they are usually repeats but may differ in a detail not shown here. Equal entries are not always repeated. Where two headings read alike, the source gives them in different places.
B1: VP020 (V-CTLD-1 with V-IGG4-ADC-B-Fc) (Fc fusion)
chain: ERLCHPCPWEWTFFQGNCYFMSNSQRNWHDSITACKEVGAQLVVIKSAEEQNFLQLQSSRSNRFTWMGLSDLNQEGTWQWVDGSPLLPSFKQYWNRGEPNNVGEEDCAEFSGNGWNDDKCNLAKFWICKKSAASCSGGGGSGGGGSGGGGSKYGPPCPPCPAPEAAGGPSVFLFPPKPKDTLMISRTPEVTCVVVDVSQEDPEVQFNWYVDGVEVHNAKTKPREEQFNSTYRVVSVLTVLHQDWLNGKEYKCAVSNKGLPSSIEKTISKCKGQPREPQVYTLPPSQEEMTKNQVSLTCLVKGFYPSDIAVEWESNGQPENNYKTTPPVLDSDGSFLLYSKLTVDKSRWQEGNVFSCSVMHEALHNHYTQKSLSLSLGK
notes: also called CT-G4-B-DC; VIT-308
B2: VP019-F2 (multimer fraction F2 of VP019, V-TIM1-1 with V-IGG4-ADC-A-Fc) (Fc fusion)
chain: SVKVGGEAGPSVTLPCHYSGAVTSMCWNRGSCSLFTCQNGIVWTNGTHVTYRKDTRYKLLGDLSRRDVSLTIENTAVSDSGVYCCRVEHRGWFNDMKITVSLEIVGGGGSGGGGSGGGGSKYGPPCPPCPAPEAAGGPSVFLFPPKPKDTLMISRTPEVTCVVVDVSQEDPEVQFNWYVDGVEVHNAKTKPREEQFNSTYRVVSVLTVLHQDWLNGKEYKCAVSNKGLPSSIEKTISKCKGQPREPQVYTLPPSQEEMTKNQVSLTCLVKGFYPSDIAVEWESNGQPENNYKTTPPVLDSDGSFFLYSRLTVDKSRWQEGNVFSCSVMHEALHNHYTQKSLSLSLGK
notes: also called TM-G4-A-DC; VIT-307
B3: VP025-CT (co-transfected product of genes TM-G4-A-DC and CT-G4-B-DC, heterodimer mixture) (Fc fusion)
chain 1: B2 chain
chain 2: B1 chain
notes: also called VP025-CT (heterodimer mixture)
B4: VP025-F4 (fraction 4 of VP025-CT, VP019/VP020 heterodimer, about 78% pure) (Fc fusion)
chain 1: B2 chain
chain 2: B1 chain
notes: also called VP025-F4 (78% pure heterodimer)

What was measured:
Experiment in all cases: ELISA, 2.5 mM CaCl2
SARS-Cov-2 S D614G [1] = target: T1, SARS-Cov-2 S D614G (SARS-CoV-2, UniProt P0DTC2 16-1213)
T1 construct: also called SARS-CoV-2 S protein (D614G); SARS-COV2 S Protein

SARS-Cov-2 S D614G [2] = target: T1, SARS-Cov-2 S D614G; remark: listed apart in the source
SARS-Cov-2 S D614G [3] = target: T1, SARS-Cov-2 S D614G; remark: listed apart in the source
SARS-Cov-2 S D614G [4] = target: T1, SARS-Cov-2 S D614G; remark: listed apart in the source

| Binder | EC50 (SARS-Cov-2 S D614G [1]) [nM] | EC50 (SARS-Cov-2 S D614G [2]) [µg/mL] | EC50 (SARS-Cov-2 S D614G [3]) | EC50 (SARS-Cov-2 S D614G [4]) |
| --- | --- | --- | --- | --- |
| B1 | 52.5 | 4.5 | 55.6 µg/mL and 641 nM |  |
| B2 | 21.1 | 1.7 | 0.9 µg/mL and 10.6 nM |  |
| B3 | 13.8 | 1.2 | 6.9 µg/mL and 82.5 nM | 4 µg/mL and 47.6 nM |
| B4 | 10 | 0.8 |  |  |

Source: US20230338465A1 (VITRUVIAE, published 2023)
